Test results reported in patent US20180016306A1.
Positions count from the first letter of the chain named. Numbers in names are those of the source.

B1: LB5t-T16H.4d (designed binder)
chain: KEETPETPETDSEEQVTIKENIYFEDGTVQHATFKGTFAEATAEAYRYADLLSKEHGKYTADLEDGGYTINIRFAGKEKTPEEPKEQVTIKENIYFEDGTVQHATFKGTFAEATAEAYRYADLLSKEHGKYTADLEDGGYTINIRFAGKEKTPEEPKEQVTIKENIYFEDGTVQHATFKGTFAEATAEAYRYADLLSKEHGKYTADLEDGGYTINIRFAGKEKTPEEPKEQVTIKENIYFEDGTVQHATFKGTFAEATAEAYRYADLLSKEHGKYTADLEDGGYTINIRFAGKKVDEKPEEC
B2: LB5t-T16D.1d (designed binder)
chain: GPLGSEQVTIKENIYFEDGTVQDATFKGTFAEATAEAYRYADLLSKEHGKYTADLEDGGYTINIRFAG
B3: LB5t-T16H.1d (designed binder)
chain: B2 chain with D23H
B4: LB5t-A17H.1d (designed binder)
chain: B2 chain with D23T, A24H
B5: LB5t-T18D.1d (designed binder)
chain: B2 chain with D23T, T25D
B6: LB5t-T18H.1d (designed binder)
chain: B2 chain with D23T, T25H
B7: LB5t-T18Q.1d (designed binder)
chain: B2 chain with D23T, T25Q
B8: LB5t-Q15H.1d (designed binder)
chain: B2 chain with Q22H, D23T
B9: LB5t-T16A.1d (designed binder)
chain: B2 chain with D23A
B10: LB5t-T16L.1d (designed binder)
chain: B2 chain with D23L
B11: LB1t-Wild.1d (protein)
chain: VTIKANLIFANGSTQTAEFKGTFEKATSEAYAYADTLKKDNGEYTVDVADKGYTLNIKFA
B12: LB1t-E18D.1d (designed binder)
chain: B11 chain with E18D

biological target: aRSV-Fab (Fab fragment of anti-RSV monoclonal IgG Palivizumab, Synagis); experiment: affinity chromatography, aRSV-Fab on LB5t-T16H.4d-immobilised cellulose carrier, linear pH gradient 5.0 to 2.4, pH at elution peak top

Row | Binder | Elution pH [pH]
1 | B1 | 3.66

biological target: aRSV-Fab (Fab fragment of anti-RSV monoclonal IgG Palivizumab, Synagis); experiment: SPR (Biacore 3000), aRSV-Fab on CM5 chip, peptide flowed, 25 C, pH 7.4, 1:1 fit

Row | Binder | Ka [M⁻¹] | koff [s⁻¹] | kon [M⁻¹ s⁻¹]
2 | B2 | 1.44e+07 | 0.0265 | 381000
3 | B3 | 2.69e+07 | 0.0159 | 428000
4 | B4 | 1.08e+06 | 0.0738 | 80000
5 | B5 | 6.79e+06 | 0.0467 | 317000
6 | B6 | 1.17e+07 | 0.036 | 422000
7 | B7 | 1.26e+07 | 0.0296 | 373000
8 | B8 | 6.7e+06 | 0.0485 | 325000
9 | B9 | 1.87e+07 | 0.0225 | 421000

biological target: aRSV-Fab (Fab fragment of anti-RSV monoclonal IgG Palivizumab, Synagis); experiment: affinity chromatography, peptide on aRSV-Fab-immobilised column, linear pH gradient 5.5 to 2.5, pH at elution peak top

Row | Binder | Dissociation pH [pH]
10 | B2 | 3.6
11 | B3 | 3.9
12 | B4 | 3.9
13 | B5 | 3.85
14 | B6 | 3.9
15 | B7 | 3.65
16 | B8 | 3.9
17 | B9 | 3.6

biological target: aRSV-Fab (Fab fragment of anti-RSV monoclonal IgG Palivizumab, Synagis); experiment: affinity chromatography, peptide on aRSV-Fab-immobilised column, linear pH gradient, pH at elution peak top

Row | Binder | Dissociation pH [pH]
18 | B10 | 3.65
19 | B11 | 2.7
20 | B12 | 2.95
